Tests used:
[1] = target: His/TF-tagged-XBP1s (recombinant XBP1s fusion protein purified from E. coli) (UniProt O35426)
[2] = test system: GST-ATF2 fusion protein (Cell Signaling)

Substance: activated recombinant p38α MAPK (Cell Signaling)
- in vitro kinase assay, immunoblotting with phospho-specific antibodies for p-XBP1s^Thr48 and p-XBP1s^Ser61 [1]: p38 MAPK directly phosphorylates XBP on Thr48 and Ser61 residues in the in vitro kinase assay
- in vitro kinase assay, incorporated 32P (phosphorylation) by autoradiography [1]: Incubation of XBP1s with activated recombinant p38 MAPK significantly increased phosphorylation of XBP1s
- in vitro kinase assay, phosphorylation of the control substrate [2]: activated recombinant p38 MAPK is fully functional and phosphorylates ATF2
